In patent publication US20120277164A1 (IMPERIAL INNOVATIONS, published 2012):
Where two headings read alike, the source gives them in different places. Square brackets hold non-standard residues; d marks the D form. Ends that are not written are not given here. * marks the point of attachment. Fmoc = O=C(OCC1c2ccccc2-c2ccccc21)*; Cha = N[C@@H](CC1CCCCC1)C(=O)O; ClZ = O=C(OCc1ccccc1Cl)*; Cbz = O=C(OCc1ccccc1)*; Bz = O=C(c1ccccc1)*; Myr = myristyl

T1: Gadd45β/MKK7 complex (biotin-hGadd45β with coated GST-MKK7, ELISA format) (human) (UniProt O75293)
T1 sequence (biotinylated (sites not stated), looked up) 1: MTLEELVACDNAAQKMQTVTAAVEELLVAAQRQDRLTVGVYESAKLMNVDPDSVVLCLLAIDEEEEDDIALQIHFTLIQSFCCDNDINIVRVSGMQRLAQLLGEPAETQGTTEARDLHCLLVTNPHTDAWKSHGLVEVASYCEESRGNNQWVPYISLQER
T1 sequence (biotinylated (sites not stated), looked up) 2: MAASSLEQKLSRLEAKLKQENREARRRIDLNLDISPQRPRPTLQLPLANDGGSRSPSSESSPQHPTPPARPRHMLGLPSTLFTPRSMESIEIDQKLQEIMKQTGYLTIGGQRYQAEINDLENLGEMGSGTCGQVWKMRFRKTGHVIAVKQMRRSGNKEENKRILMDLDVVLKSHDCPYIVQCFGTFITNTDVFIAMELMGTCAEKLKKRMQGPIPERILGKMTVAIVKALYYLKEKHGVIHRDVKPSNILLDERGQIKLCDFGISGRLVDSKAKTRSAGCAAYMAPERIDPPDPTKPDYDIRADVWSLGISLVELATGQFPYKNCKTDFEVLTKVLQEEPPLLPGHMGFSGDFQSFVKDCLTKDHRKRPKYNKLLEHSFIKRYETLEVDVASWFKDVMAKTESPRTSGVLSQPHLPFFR

T2: Gadd45β/MKK7 complex (biotin-hGadd45β with coated GST-MKK7, ELISA format) (human, UniProt O75293 1-160; O14733 1-419, biotinylated (sites not given))
T2 construct: not shown: glutathione S-transferase (GST) fusion partner
T2 sequence (looked up) 1: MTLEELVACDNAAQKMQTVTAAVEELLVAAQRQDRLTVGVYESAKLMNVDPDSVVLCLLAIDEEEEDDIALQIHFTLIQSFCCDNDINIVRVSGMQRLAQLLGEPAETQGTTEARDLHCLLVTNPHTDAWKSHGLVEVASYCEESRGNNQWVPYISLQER
T2 sequence (looked up) 2: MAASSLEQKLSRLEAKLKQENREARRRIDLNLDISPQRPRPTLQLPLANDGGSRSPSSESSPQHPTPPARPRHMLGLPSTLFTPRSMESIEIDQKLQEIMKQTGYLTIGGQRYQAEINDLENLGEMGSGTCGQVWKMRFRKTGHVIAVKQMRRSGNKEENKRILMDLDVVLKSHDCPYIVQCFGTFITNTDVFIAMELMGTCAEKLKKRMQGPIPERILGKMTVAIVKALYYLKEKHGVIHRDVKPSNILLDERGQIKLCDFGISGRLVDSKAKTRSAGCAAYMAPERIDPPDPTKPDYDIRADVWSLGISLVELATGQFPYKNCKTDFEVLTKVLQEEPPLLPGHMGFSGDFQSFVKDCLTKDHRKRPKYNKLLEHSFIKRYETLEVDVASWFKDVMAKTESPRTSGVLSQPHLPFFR


Assays:
[1] = target: T1, Gadd45β/MKK7 complex (biotin-hGadd45β with coated GST-MKK7, ELISA format) (human); test: competition ELISA; coated GST-MKK7 42 nM, biotin-hGadd45β 21 nM
[2] = target: T2, Gadd45β/MKK7 complex (biotin-hGadd45β …); test: competition ELISA; coated GST-MKK7, biotin-hGadd45β; single dose
[3] = target: T2, Gadd45β/MKK7 complex (biotin-hGadd45β …); test: as above; remark: listed apart in the source

Row | Molecule | IC50 [1] | % Inhibition of Gadd45β-MKK7 binding [2] | % Inhibition of Gadd45β-MKK7 binding [3]
1 | Ac-Tyr-Gln-Phe-NH2 (peptide) | > 10 nM |  | 
2 | Ac-YHF-NH2 (peptide) | 0.69 nM |  | 
3 | Ac-Tyr-Leu-Phe-NH2 (peptide) | 1.8 nM |  | 
4 | Ac-Tyr-Asn-Phe-NH2 (peptide) | 1.9 nM |  | 
5 | AC-Tyr-Met-Phe-NH2 (peptide) | > 10 nM |  | 
6 | Ac-YPF-NH2 (peptide) | 0.645 nM |  | 
7 | Ac-[dY][dM][dR][dF]-NH2 (also: D/L configuration not given here) [Ac-Tyr-Met-Arg-Phe-NH2] | > 10 nM |  | 
8 | Ac-[dY][dL][dR][dF]-NH2 (also: D/L configuration not given here) [Ac-Tyr-Leu-Arg-Phe-NH2] | 5 nM |  | 
9 | Ac-[dY][dY][dR][dF]-NH2 (also: D/L configuration not given here) [Ac-Tyr-Tyr-Arg-Phe-NH2] | > 5 nM |  | 
10 | ClZ-YDHF-NH2 [2CI-Z-YDHF-NH2] |  | 38% | 
11 | Ac-[dY][dN][dR][dF]-NH2 (also: D/L configuration not given here) [Ac-Tyr-Asn-Arg-Phe-NH2] | 10 nM |  | 
12 | ClZ-YDHQ-NH2 [2CI-Z-YDHQ-NH2] |  | 40% | 
13 | Ac-YDRW-NH2 [Ac-YDRW-NH2] |  |  | 43%
14 | {3‑OH‑4MeO‑benzoic acid}-YERF-NH2 [3-OH-4MeO-Benzoid acid-YERF-NH2] |  | 86% | 
15 | Ac-WERW-NH2 [Ac-WERW-NH2] |  |  | 69%
16 | Ac-PERF-NH2 [Ac-PERF-NH2] |  | 24% | 
17 | Ac-WDHW-NH2 [Ac-WDHW-NH2] |  |  | 50%
18 | Ac-YARF-NH2 [Ac-YARF-NH2] |  | 17% | 
19 | Ac-YEPF-NH2 [Ac-YEPF-NH2] |  | 13% | 
20 | Ac-YERP-NH2 [Ac-YERP-NH2] |  | 0% | 
21 | Ac-WEHW-NH2 [Ac-WEHW-NH2] |  |  | 75%
22 | Ac-YEAF-NH2 [Ac-YEAF-NH2] |  | 13% | 

Row | Molecule | IC50 [1] | % Inhibition of Gadd45β-MKK7 binding [2] | % Inhibition of Gadd45β-MKK7 binding [3]
23 | Ac-YDKW-NH2 [Ac-YDKW-NH2] |  |  | 23%
24 | Ac-YEKW-NH2 [Ac-YEKW-NH2] |  |  | 27%
25 | Ac-WDRF-NH2 [Ac-WDRF-NH2] |  |  | 46%
26 | Ac-WDHF-NH2 [Ac-WDHF-NH2] |  |  | 28%
27 | Ac-YPRF-NH2 [Ac-YPRF-NH2] |  | 13% | 
28 | Ac-YERW-NH2 [Ac-YERW-NH2] |  |  | 59%
29 | Ac-WDKW-NH2 [Ac-WDKW-NH2] |  |  | 69%
30 | Ac-YDRF-NH2 [Ac-YDRF-NH2] |  | 19% | 45%
31 | ClZ-YERF-NH2 [2CI-Z-YERF-NH2] |  | 38% | 
32 | Ac-WDRW-NH2 [Ac-WDRW-NH2] |  |  | 93%
33 | Ac-WEKW-NH2 [Ac-WEKW-NH2] |  |  | 65%
34 | Ac-YERA-NH2 [Ac-YERA-NH2] |  | 28% | 
35 | Ac-WERF-NH2 [Ac-WERF-NH2] |  |  | 29%
36 | Ac-YEHW-NH2 [Ac-YEHW-NH2] |  |  | 64%
37 | Ac-YDKF-NH2 [Ac-YDKF-NH2] |  |  | 35%
38 | Ac-WEKF-NH2 [Ac-WEKF-NH2] |  |  | 65%
39 | Ac-WDKF-NH2 [Ac-WDKF-NH2] |  |  | 26%
40 | Ac-WEHF-NH2 [Ac-WEHF-NH2] |  |  | 36%
41 | Ac-YDHW-NH2 [Ac-YDHW-NH2] |  |  | 58%
42 | Ac-YEKF-NH2 [Ac-YEKF-NH2] |  |  | 64%
43 | {3‑hydroxy‑4‑methoxybenzoyl}-YDHF-NH2 [3-OH-4MeO-Benzoid acid-YDHF-NH2] |  | 81% | 
44 | Ac-[dY][dQ][dR][dF]-NH2 (also: D/L configuration not given here) [Ac-Tyr-Gln-Arg-Phe-NH2] | 5 nM |  | 

Second part, the molecule after the results:

Row | IC50 [1] | % Inhibition of Gadd45β-MKK7 binding [2] | % Inhibition of Gadd45β-MKK7 binding [3] | Molecule
45 | 0.162 nM |  |  | Cbz-Tyr-Asp-Phe-NH2
46 | 0.158 nM |  |  | Z-Tyr-Glu-Phe-NH2 (mDTP2) (peptide)
47 | > 5 nM |  |  | Ac-[Cha]-Arg-Phe-NH2
48 | 0.645 nM |  |  | H-YHF-NH2 (peptide)
49 | 0.1 nM |  |  | Cbz-Tyr-Arg-Phe-NH2
50 | > 5 nM |  |  | Ac-Tyr-Arg-[Cha]
51 | 0.75 nM |  |  | H-YRY-NH2 (peptide)
52 | 0.758 nM |  |  | Ac-YRY-NH2 (peptide)
53 |  | 84% |  | Cbz-YDHF-NH2 (also called Z-LTP1) [Z-YDHF-NH2]
54 | > 10 nM |  |  | Cbz-[dY][dD][dH][dQ]-NH2 [Z-Tyr-Asp-His-Gln-NH2]
55 |  | 0% |  | Bz-YDHF-NH2 [Benzoic acid-YDHF-NH2]
56 |  | 84% |  | Cbz-YD(OMe)HF-NH2 [Z-YD(OMe)HF-NH2]
57 | > 5 nM |  |  | Cbz-[dY][dY][dE][dR][dF]-NH2 [Z-Tyr-Tyr-Glu-Arg-Phe-NH2]
58 |  | 26% |  | Myr-YDHF-NH2 [Myr-YDHF-NH2]
59 |  | 24% |  | Bz-YERF-NH2 [Benzoic acid-YERF-NH2]
60 |  | 28% |  | Myr-YDHQ-NH2 [Myr-YDHQ-NH2]
61 |  | 13% |  | Cbz-YDHQ-NH2 [Z-YDHQ-NH2]
62 |  | 37% |  | Myr-YERF-NH2 [Myr-YERF-NH2]
63 |  | 60% |  | Fmoc-YERF-NH2 [Fmoc-YERF-NH2]
64 |  | 78% |  | Cbz-YERF-NH2 (also called Z-LTP2) [Z-YERF-NH2]
65 | > 10 nM |  |  | Cbz-[dY][dY][dD][dH][dQ]-NH2 [Z-Tyr-Tyr-Asp-His Gln-NH2]
66 |  | 58% |  | Fmoc-YDHF-NH2 [Fmoc-YDHF-NH2]
